Laboratory results: PMC5148612, “Mechanism of cargo-directed Atg8 conjugation during selective autophagy” (eLife, 2016)

B6: GST-prApe1(1–41) + Atg19 (complex, S. cerevisiae)
chain 1: MEEQREILEQLKKTLQMLTVEPSKNNQIANEEKEKKENENS
chain 2: MNNSKTNQQMNTSMGYPLTVYDECNKFQLIVPTLDANIMLWCIGQLSLLNDSNGCKHLFWQPNDKSNVRILLNNYDYGHLFKYLQCQRKCSVYIGEGTLKKYNLTISTSFDNFLDLTPSEEKESLCREDAHEDPVSPKAGSEEEISPNSTSNVVVSRECLDNFMKQLLKLEESLNKLELEQKVTNKEPNHRISGTIDIPEDRSELVNFFTELKTVKQLEDVFQRYHDYERLSQECDSKTEIASDHSKKETKIEVEPPNERSLQITMNQRDNSLYFQLFNNTNSVLAGNCKLKFTDAGDKPTTQIIDMGPHEIGIKEYKEYRYFPYALDLEAGSTIEIENQYGEVIFLGKYGSSPMINLRPPSRLSAESLQASQEPFYSFQIDTLPELDDSSIISTSISLSYDGDDNEKALTWEEL
notes: prApe1, S. cerevisiae, propeptide; Atg19, S. cerevisiae; formed beforehand on the beads; Atg19 as m17; also called cargo mimetic beads; source: purified proteins from E. coli, assembled on glutathione Sepharose beads and washed; not shown: GST, N-terminal, kept

What was measured:
Conditions in all cases: both partners purified
GST-Atg19 = molecular target: T1, GST-Atg19 (S. cerevisiae, UniProt P35193 1-415); assay: pull-down; GST-fused bait 5 µM and GST-free prey 5 µM with glutathione Sepharose 4B, 1 hr at 4°C; washed with 25 mM HEPES pH 7.5, 150 mM NaCl, 1 mM DTT and 0.1% TritonX100; Western blot (Figures 1A, 1C, 2A, 2C)
T1 construct: Atg19, S. cerevisiae cargo receptor; also called full length GST-Atg19; Atg19 full length; source: E. coli Rosetta pLysS, purified; not shown: GST, N-terminal, kept
T1 sequence (looked up): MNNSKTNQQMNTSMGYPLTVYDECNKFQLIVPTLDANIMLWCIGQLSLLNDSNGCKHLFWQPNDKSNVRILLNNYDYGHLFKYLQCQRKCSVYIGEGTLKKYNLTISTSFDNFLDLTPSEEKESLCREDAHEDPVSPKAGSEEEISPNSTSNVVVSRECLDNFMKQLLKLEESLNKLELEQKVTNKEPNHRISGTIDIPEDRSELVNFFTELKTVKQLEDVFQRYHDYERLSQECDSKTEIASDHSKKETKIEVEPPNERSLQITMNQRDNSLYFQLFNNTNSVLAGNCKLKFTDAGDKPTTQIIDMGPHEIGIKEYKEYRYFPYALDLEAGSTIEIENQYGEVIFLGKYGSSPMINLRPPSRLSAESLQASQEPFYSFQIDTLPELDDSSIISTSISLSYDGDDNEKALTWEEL

Atg19 [1] = molecular target: T2, Atg19 (S. cerevisiae, UniProt P35193 1-415); assay: microscopy-based protein-protein interaction assay on beads; beads with GST-prApe1(1–41) at 25 µM, washed, Atg19 15 µM, washed, Atg12~Atg5-Atg16-mCherry (wild type and mutants) 8.8 µM (Figure 5B, C)
T2 construct: Atg19, S. cerevisiae; printed without a tag; also called Atg19 wild type
T2 sequence (looked up): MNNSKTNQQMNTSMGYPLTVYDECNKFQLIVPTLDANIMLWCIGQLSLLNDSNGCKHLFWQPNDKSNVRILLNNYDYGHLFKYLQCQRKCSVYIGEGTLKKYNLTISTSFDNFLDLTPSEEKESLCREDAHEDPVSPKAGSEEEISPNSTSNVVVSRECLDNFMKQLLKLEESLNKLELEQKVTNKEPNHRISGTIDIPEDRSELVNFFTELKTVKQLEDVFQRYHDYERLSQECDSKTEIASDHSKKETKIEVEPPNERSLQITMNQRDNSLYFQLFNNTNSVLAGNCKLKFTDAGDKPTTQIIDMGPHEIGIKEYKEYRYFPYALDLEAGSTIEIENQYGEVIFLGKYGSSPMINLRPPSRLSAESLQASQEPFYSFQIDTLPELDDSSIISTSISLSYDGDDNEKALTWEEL

GST-prApe1(1–41) + Atg19 = molecular target: B6; assay: microscopy-based competition assay on beads; beads with GST-prApe1 propeptide (10 µM) and Atg19 (20 µM), Atg12~Atg5-Atg16-mCherry 5 µM; then GFP-Atg8 5 µM (1x) and 50 µM (10x) (Figure 3G)
Atg19 [2] = molecular target: T2, Atg19; assay: microscopy-based recruitment to cargo mimetic beads; beads with GST-prApe1(1–45) 25 µM, Atg19 15 µM, Atg12~Atg5-Atg16-mCherry 12.5 µM, washed after each step, with ATTO390-containing SUVs (Figure 6, Figure 6—figure supplement 2)
mCherry-Atg19 = molecular target: T3, mCherry-Atg19 (S. cerevisiae, UniProt P35193 1-415); assay: microscopy-based protein-protein interaction assay on beads; beads with GST-prApe1(1–45) at 5 µM, washed, Atg19 (wild type, mutant or mCherry-Atg19) 5 µM, washed, Atg12~Atg5-Atg16-meGFP 5 µM (Figure 3—figure supplement 2, Figure 6—figure supplement 1)
T3 construct: Atg19, S. cerevisiae; also called 6xHis-mCherry-Atg19; source: E. coli Rosetta pLysS, purified via a hexahistidine tag; not shown: mCherry, N-terminal, kept
T3 sequence (looked up): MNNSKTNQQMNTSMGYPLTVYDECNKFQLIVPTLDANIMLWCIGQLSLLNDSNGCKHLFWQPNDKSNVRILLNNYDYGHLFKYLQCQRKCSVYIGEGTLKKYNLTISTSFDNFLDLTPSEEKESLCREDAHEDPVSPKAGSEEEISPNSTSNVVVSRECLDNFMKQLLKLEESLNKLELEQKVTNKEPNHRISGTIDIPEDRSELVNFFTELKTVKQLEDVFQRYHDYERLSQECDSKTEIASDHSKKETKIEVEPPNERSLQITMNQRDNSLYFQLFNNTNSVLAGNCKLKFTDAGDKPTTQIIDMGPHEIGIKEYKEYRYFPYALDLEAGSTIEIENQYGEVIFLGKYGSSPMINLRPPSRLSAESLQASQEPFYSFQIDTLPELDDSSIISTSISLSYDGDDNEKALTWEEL

[3] = molecular target: T4, Atg12~Atg5-Atg16-mCherry complex (S. cerevisiae, UniProt P38316 1-186; Q12380 1-294; Q03818 1-150, conjugated to Atg5 (Atg12~Atg5 protein conjugate) | conjugated to Atg12); assay: microscopy-based recruitment to cargo mimetic beads; beads with GST-prApe1(1–45) 25 µM, Atg19 15 µM, Atg12~Atg5-Atg16-mCherry 12.5 µM, washed after each step, with ATTO390-containing SUVs (Figure 6, Figure 6—figure supplement 2)
T4 construct: Atg12, S. cerevisiae; Atg5, S. cerevisiae; Atg16, S. cerevisiae; also called Cx; source: E. coli Rosetta pLysS; Atg12~Atg5 conjugate mixed 1:1 with purified Atg16-mCherry, purified by size exclusion chromatography; not shown: His6, N-terminal, cleaved; mCherry, C-terminal, kept; copies: + +
T4 sequence (looked up) 1: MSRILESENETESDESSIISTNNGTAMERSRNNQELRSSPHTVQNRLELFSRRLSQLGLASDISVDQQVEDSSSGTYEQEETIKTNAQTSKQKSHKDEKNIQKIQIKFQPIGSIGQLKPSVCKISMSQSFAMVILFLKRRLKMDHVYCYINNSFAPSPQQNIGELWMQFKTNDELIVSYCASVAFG
T4 sequence (looked up) 2: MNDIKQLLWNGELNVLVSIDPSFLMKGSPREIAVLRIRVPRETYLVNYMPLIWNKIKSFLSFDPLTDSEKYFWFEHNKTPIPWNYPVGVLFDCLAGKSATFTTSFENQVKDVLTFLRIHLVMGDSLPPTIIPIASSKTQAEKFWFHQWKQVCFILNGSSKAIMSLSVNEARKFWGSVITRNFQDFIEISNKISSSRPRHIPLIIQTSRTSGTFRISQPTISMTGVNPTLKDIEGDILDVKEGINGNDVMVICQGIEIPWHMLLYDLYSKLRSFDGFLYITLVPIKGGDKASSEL
T4 sequence (looked up) 3: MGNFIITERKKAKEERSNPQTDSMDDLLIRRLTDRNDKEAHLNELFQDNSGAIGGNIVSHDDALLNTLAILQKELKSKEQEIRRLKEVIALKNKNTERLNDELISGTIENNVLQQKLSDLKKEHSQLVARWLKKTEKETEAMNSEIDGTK

[4] = molecular target: T5, Atg12~Atg5-Atg16-meGFP complex (S. cerevisiae, UniProt P38316 1-186; Q12380 1-294; Q03818 1-150, conjugated to Atg5 (Atg12~Atg5 protein conjugate) | conjugated to Atg12); assay: microscopy-based protein-protein interaction assay on beads; beads with GST-prApe1(1–45) at 5 µM, washed, Atg19 (wild type, mutant or mCherry-Atg19) 5 µM, washed, Atg12~Atg5-Atg16-meGFP 5 µM (Figure 3—figure supplement 2, Figure 6—figure supplement 1)
T5 construct: Atg12, S. cerevisiae; Atg5, S. cerevisiae; Atg16, S. cerevisiae; called -eGFP in one legend and -meGFP in the methods; also called Atg12~Atg5-Atg16-eGFP; source: E. coli Rosetta pLysS, purified; not shown: meGFP, C-terminal, kept; copies: + +
T5 sequence (looked up) 1: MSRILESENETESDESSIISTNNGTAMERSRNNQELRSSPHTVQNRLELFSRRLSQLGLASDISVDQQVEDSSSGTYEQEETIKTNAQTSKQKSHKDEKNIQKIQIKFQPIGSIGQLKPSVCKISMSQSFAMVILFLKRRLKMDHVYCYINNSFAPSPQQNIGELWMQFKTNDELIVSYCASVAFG
T5 sequence (looked up) 2: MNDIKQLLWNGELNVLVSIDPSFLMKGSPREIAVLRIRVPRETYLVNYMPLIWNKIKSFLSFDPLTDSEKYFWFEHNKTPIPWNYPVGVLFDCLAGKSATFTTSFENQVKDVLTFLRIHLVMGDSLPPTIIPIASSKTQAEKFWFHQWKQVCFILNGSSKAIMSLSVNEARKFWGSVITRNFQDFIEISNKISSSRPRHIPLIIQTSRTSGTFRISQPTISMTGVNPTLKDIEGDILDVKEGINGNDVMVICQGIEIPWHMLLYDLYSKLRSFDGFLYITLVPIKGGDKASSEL
T5 sequence (looked up) 3: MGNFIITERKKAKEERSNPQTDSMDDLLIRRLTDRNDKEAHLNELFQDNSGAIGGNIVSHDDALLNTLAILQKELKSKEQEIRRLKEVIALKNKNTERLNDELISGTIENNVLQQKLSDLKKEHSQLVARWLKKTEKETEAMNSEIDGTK

[5] = molecular target: T4, Atg12~Atg5-Atg16-mCherry complex; assay: microscopy-based competition assay on beads; beads with GST-prApe1 propeptide (10 µM) and Atg19 (20 µM), Atg12~Atg5-Atg16-mCherry 5 µM; then GFP-Atg8 5 µM (1x) and 50 µM (10x) (Figure 3G)

B1: Atg5-Atg16 (1–46) (complex, S. cerevisiae)
chain 1: MNDIKQLLWNGELNVLVSIDPSFLMKGSPREIAVLRIRVPRETYLVNYMPLIWNKIKSFLSFDPLTDSEKYFWFEHNKTPIPWNYPVGVLFDCLAGKSATFTTSFENQVKDVLTFLRIHLVMGDSLPPTIIPIASSKTQAEKFWFHQWKQVCFILNGSSKAIMSLSVNEARKFWGSVITRNFQDFIEISNKISSSRPRHIPLIIQTSRTSGTFRISQPTISMTGVNPTLKDIEGDILDVKEGINGNDVMVICQGIEIPWHMLLYDLYSKLRSFDGFLYITLVPIKGGDKASSEL
chain 2: MGNFIITERKKAKEERSNPQTDSMDDLLIRRLTDRNDKEAHLNELF
notes: Atg5, S. cerevisiae; Atg16, S. cerevisiae, first 46 amino acids; the His tag of Atg5 is followed by a TEV site; also called Atg5 stabilized with the N-terminal helix of Atg16; Atg5-Atg16 (1–46) wild type; source: E. coli, co-expressed and purified in complex
- binding result (GST-Atg19): binds

B2: GST-prApe1(1–41) (domain or fragment, S. cerevisiae, UniProt P14904 1-41, looked up)
chain: MEEQREILEQLKKTLQMLTVEPSKNNQIANEEKEKKENENS
notes: prApe1, S. cerevisiae, propeptide; also called prApe1 propeptide; source: E. coli Rosetta pLysS, purified as a GST fusion protein; not shown: GST, N-terminal, kept
- binding result (Atg19 [1]): binds

B3: GFP-Atg8∆R117 (natural protein, S. cerevisiae, UniProt P38182 1-116, looked up)
chain: MKSTFKSEYPFEKRKAESERIADRFKNRIPVICEKAEKSDIPEIDKRKYLVPADLTVGQFVYVIRKRIMLPPEKAIFIFVNDTLPPTAALMSAIYQEHKDKDGFLYVTYSGENTFG
notes: Atg8, S. cerevisiae, without its last residue R117; also called meGFP-Atg8∆R117; 6xHis-meGFP-Atg8∆R117; source: E. coli Rosetta pLysS, purified; not shown: meGFP, N-terminal, kept
- binding result (GST-prApe1(1–41) + Atg19): binds

B4: GST-prApe1(1–45) (domain or fragment, S. cerevisiae, UniProt P14904 1-45, looked up)
chain: MEEQREILEQLKKTLQMLTVEPSKNNQIANEEKEKKENENSWCIL
notes: prApe1 (precursor aminopeptidase 1), S. cerevisiae, propeptide; also called prApe1 propeptide; cargo mimetic beads; source: E. coli Rosetta pLysS, purified; not shown: GST, N-terminal, kept
- binding result (Atg19 [2]): binds
- binding result (mCherry-Atg19): binds

B5: GST-prApe1(1–45) + Atg19 (complex, S. cerevisiae)
chain 1: MEEQREILEQLKKTLQMLTVEPSKNNQIANEEKEKKENENSWCIL
chain 2: MNNSKTNQQMNTSMGYPLTVYDECNKFQLIVPTLDANIMLWCIGQLSLLNDSNGCKHLFWQPNDKSNVRILLNNYDYGHLFKYLQCQRKCSVYIGEGTLKKYNLTISTSFDNFLDLTPSEEKESLCREDAHEDPVSPKAGSEEEISPNSTSNVVVSRECLDNFMKQLLKLEESLNKLELEQKVTNKEPNHRISGTIDIPEDRSELVNFFTELKTVKQLEDVFQRYHDYERLSQECDSKTEIASDHSKKETKIEVEPPNERSLQITMNQRDNSLYFQLFNNTNSVLAGNCKLKFTDAGDKPTTQIIDMGPHEIGIKEYKEYRYFPYALDLEAGSTIEIENQYGEVIFLGKYGSSPMINLRPPSRLSAESLQASQEPFYSFQIDTLPELDDSSIISTSISLSYDGDDNEKALTWEEL
notes: prApe1, S. cerevisiae, propeptide; Atg19, S. cerevisiae; formed beforehand on the beads; Atg19 as m17; source: purified proteins from E. coli, assembled on glutathione Sepharose beads and washed; not shown: GST, N-terminal, kept
- binding result [3]: binds
- binding result [4]: binds

Binder: B6
- binding result [5]: binds
